Laboratory results published in paper PMC11969024 (2025).

B1: peptide HD2 (from tick evasin EVA4) / CCL4 (biotinylated, synthetic) (parent complex)
chain 1: EEDDYTAYAPLTCYFT
chain 2: APMGSDPPTACCFSYTARKLPRNFVVDYYETSSLCSQPAVVFQTKRSKQVCADPSESWVQEYVYDLELN

Variants of: B1

Compared with chain 1 P10A, chain 1 P10V is lower in enrichment: -7.28 log2 (difference from the parental peptide) for the first, -9.95 log2 (difference from the parental peptide) for the second.

Going from chain 1 P10F to chain 1 P10C, the enrichment falls from -7.39 log2 (difference from the parental peptide) to -7.71 log2 (difference from the parental peptide).

First: chain 1 P10S
Second: chain 1 P10E
The enrichment of the first is lower: -7.76 log2 (difference from the parental peptide) for the first, -4.88 log2 (difference from the parental peptide) for the second.

Going from chain 1 P10L to chain 1 P10Y, the enrichment rises from -9.07 log2 (difference from the parental peptide) to -7.13 log2 (difference from the parental peptide).

Compared with chain 1 P10W, chain 1 E1V is higher in enrichment: -7.42 log2 (difference from the parental peptide) for the first, -1.21 log2 (difference from the parental peptide) for the second.

Compared with chain 1 E1K, chain 1 E1R is lower in enrichment: -2.64 log2 (difference from the parental peptide) for the first, -3.09 log2 (difference from the parental peptide) for the second.

First: chain 1 E1I
Second: chain 1 E1W
The enrichment of the first is higher: -0.889 log2 (difference from the parental peptide) for the first, -3.15 log2 (difference from the parental peptide) for the second.

Compared with chain 1 E1D, chain 1 E1G is lower in enrichment: 1.99 log2 (difference from the parental peptide) for the first, -0.0396 log2 (difference from the parental peptide) for the second.

Compared with chain 1 E1F, chain 1 E1H is higher in enrichment: -2.68 log2 (difference from the parental peptide) for the first, -1.57 log2 (difference from the parental peptide) for the second.

Going from chain 1 E1N to chain 1 E1S, the enrichment falls from -0.413 log2 (difference from the parental peptide) to -0.537 log2 (difference from the parental peptide).

Going from chain 1 E1M to chain 1 E1T, the enrichment falls from -0.205 log2 (difference from the parental peptide) to -0.507 log2 (difference from the parental peptide).

Going from chain 1 E1L to chain 1 T16N, the enrichment rises from -1.55 log2 (difference from the parental peptide) to 0.632 log2 (difference from the parental peptide).

Going from chain 1 T16I to chain 1 T16Q, the enrichment rises from -0.308 log2 (difference from the parental peptide) to 1.49 log2 (difference from the parental peptide).

First: chain 1 T16K
Second: chain 1 T16S
The enrichment of the first is lower: 0.843 log2 (difference from the parental peptide) for the first, 1.17 log2 (difference from the parental peptide) for the second.

First: chain 1 T16G
Second: chain 1 T16V
The enrichment of the first is higher: 1.59 log2 (difference from the parental peptide) for the first, -0.281 log2 (difference from the parental peptide) for the second.

Going from chain 1 T16Y to chain 1 T6E, the enrichment rises from -1.43 log2 (difference from the parental peptide) to 2.94 log2 (difference from the parental peptide).

Going from chain 1 T6D to chain 1 T6A, the enrichment falls from 3.6 log2 (difference from the parental peptide) to 1.9 log2 (difference from the parental peptide).

Going from chain 1 T6I to chain 1 T6F, the enrichment rises from -5.92 log2 (difference from the parental peptide) to -4.46 log2 (difference from the parental peptide).

Compared with chain 1 T6H, chain 1 T6P is lower in enrichment: -0.386 log2 (difference from the parental peptide) for the first, -5.36 log2 (difference from the parental peptide) for the second.

Going from chain 1 T6M to chain 1 T6Y, the enrichment falls from -1.2 log2 (difference from the parental peptide) to -1.54 log2 (difference from the parental peptide).

First: chain 1 T6V
Second: chain 1 T6L
The enrichment of the first is lower: -3.51 log2 (difference from the parental peptide) for the first, -2.59 log2 (difference from the parental peptide) for the second.

Compared with chain 1 T6K, chain 1 T12Q is higher in enrichment: -1.03 log2 (difference from the parental peptide) for the first, 1 log2 (difference from the parental peptide) for the second.

Going from chain 1 T12M to chain 1 T12L, the enrichment rises from 2.93 log2 (difference from the parental peptide) to 3.18 log2 (difference from the parental peptide).

First: chain 1 T12R
Second: chain 1 T12S
The enrichment of the first is lower: -1.17 log2 (difference from the parental peptide) for the first, 0.347 log2 (difference from the parental peptide) for the second.

Compared with chain 1 T12P, chain 1 T12C is lower in enrichment: 0.2 log2 (difference from the parental peptide) for the first, -4.88 log2 (difference from the parental peptide) for the second.

First: chain 1 T12F
Second: chain 1 T12G
The enrichment of the first is higher: 2.42 log2 (difference from the parental peptide) for the first, -4.11 log2 (difference from the parental peptide) for the second.

First: chain 1 T12K
Second: chain 1 T12A
The enrichment of the first is lower: -2.25 log2 (difference from the parental peptide) for the first, 0.00832 log2 (difference from the parental peptide) for the second.

Compared with chain 1 Y14V, chain 1 Y14T is higher in enrichment: -1.84 log2 (difference from the parental peptide) for the first, -1.65 log2 (difference from the parental peptide) for the second.

Compared with chain 1 Y14I, chain 1 Y14F is higher in enrichment: -1.56 log2 (difference from the parental peptide) for the first, 0.581 log2 (difference from the parental peptide) for the second.

First: chain 1 Y14M
Second: chain 1 Y14C
The enrichment of the first is higher: -2.24 log2 (difference from the parental peptide) for the first, -4.56 log2 (difference from the parental peptide) for the second.

First: chain 1 Y14K
Second: chain 1 Y14W
The enrichment of the first is lower: -5.73 log2 (difference from the parental peptide) for the first, -0.462 log2 (difference from the parental peptide) for the second.

Going from chain 1 Y14L to chain 1 Y14H, the enrichment rises from -2.84 log2 (difference from the parental peptide) to -0.0476 log2 (difference from the parental peptide).

Going from chain 1 C13S to chain 1 C13G, the enrichment falls from -4.84 log2 (difference from the parental peptide) to -9 log2 (difference from the parental peptide).

Compared with chain 1 C13V, chain 1 C13N is lower in enrichment: -2.03 log2 (difference from the parental peptide) for the first, -7.77 log2 (difference from the parental peptide) for the second.

First: chain 1 C13F
Second: chain 1 C13D
The enrichment of the first is higher: -8.2 log2 (difference from the parental peptide) for the first, -8.73 log2 (difference from the parental peptide) for the second.

First: chain 1 C13A
Second: chain 1 C13I
The enrichment of the first is lower: -7.87 log2 (difference from the parental peptide) for the first, -3.66 log2 (difference from the parental peptide) for the second.

Going from chain 1 C13W to chain 1 C13Q, the enrichment falls from -6.63 log2 (difference from the parental peptide) to -7.94 log2 (difference from the parental peptide).

Going from chain 1 A7C to chain 1 A7S, the enrichment rises from -7.41 log2 (difference from the parental peptide) to 1.01 log2 (difference from the parental peptide).

Going from chain 1 A7N to chain 1 A7Y, the enrichment falls from 0.608 log2 (difference from the parental peptide) to -1.83 log2 (difference from the parental peptide).

Going from chain 1 A7F to chain 1 A7Q, the enrichment rises from -2.35 log2 (difference from the parental peptide) to 2.27 log2 (difference from the parental peptide).

First: chain 1 A7H
Second: chain 1 A7D
The enrichment of the first is lower: -0.536 log2 (difference from the parental peptide) for the first, 1.81 log2 (difference from the parental peptide) for the second.

Going from chain 1 A7R to chain 1 A7E, the enrichment rises from 0.829 log2 (difference from the parental peptide) to 2.68 log2 (difference from the parental peptide).

Compared with chain 1 F15V, chain 1 F15W is lower in enrichment: 1.4 log2 (difference from the parental peptide) for the first, -1.58 log2 (difference from the parental peptide) for the second.

Compared with chain 1 F15A, chain 1 F15P is lower in enrichment: 1.49 log2 (difference from the parental peptide) for the first, 1.32 log2 (difference from the parental peptide) for the second.

First: chain 1 F15K
Second: chain 1 F15G
The enrichment of the first is higher: 0.923 log2 (difference from the parental peptide) for the first, -2.79 log2 (difference from the parental peptide) for the second.

First: chain 1 F15I
Second: chain 1 F15C
The enrichment of the first is higher: 0.969 log2 (difference from the parental peptide) for the first, -4.83 log2 (difference from the parental peptide) for the second.

Going from chain 1 F15D to chain 1 F15S, the enrichment rises from -2.26 log2 (difference from the parental peptide) to -0.0882 log2 (difference from the parental peptide).

Going from chain 1 F15M to chain 1 D4G, the enrichment falls from 1.08 log2 (difference from the parental peptide) to -4.2 log2 (difference from the parental peptide).

Going from chain 1 D4R to chain 1 D4W, the enrichment rises from -5.66 log2 (difference from the parental peptide) to -2.51 log2 (difference from the parental peptide).

Going from chain 1 D4M to chain 1 D4Q, the enrichment rises from -3.8 log2 (difference from the parental peptide) to -3.05 log2 (difference from the parental peptide).

Going from chain 1 D4F to chain 1 D4H, the enrichment falls from -3.98 log2 (difference from the parental peptide) to -5.75 log2 (difference from the parental peptide).

Going from chain 1 D4E to chain 1 D4T, the enrichment falls from 0.269 log2 (difference from the parental peptide) to -4.12 log2 (difference from the parental peptide).

Going from chain 1 D4I to chain 1 L11D, the enrichment falls from -3.77 log2 (difference from the parental peptide) to -7.07 log2 (difference from the parental peptide).

Compared with chain 1 L11M, chain 1 L11R is lower in enrichment: 2.23 log2 (difference from the parental peptide) for the first, 1.19 log2 (difference from the parental peptide) for the second.

Going from chain 1 L11A to chain 1 L11W, the enrichment falls from 0.289 log2 (difference from the parental peptide) to -0.0529 log2 (difference from the parental peptide).

Compared with chain 1 L11C, chain 1 L11K is higher in enrichment: 0.222 log2 (difference from the parental peptide) for the first, 1.88 log2 (difference from the parental peptide) for the second.

First: chain 1 Y8N
Second: chain 1 Y8D
The enrichment of the first is lower: -2.94 log2 (difference from the parental peptide) for the first, -2.3 log2 (difference from the parental peptide) for the second.

First: chain 1 Y8P
Second: chain 1 Y8V
The enrichment of the first is higher: -0.864 log2 (difference from the parental peptide) for the first, -2.68 log2 (difference from the parental peptide) for the second.

Compared with chain 1 Y8H, chain 1 A9G is lower in enrichment: -0.426 log2 (difference from the parental peptide) for the first, -5.26 log2 (difference from the parental peptide) for the second.

Going from chain 1 A9F to chain 1 A9Y, the enrichment rises from -6.63 log2 (difference from the parental peptide) to -5.65 log2 (difference from the parental peptide).

First: chain 1 A9Q
Second: chain 1 A9V
The enrichment of the first is higher: -0.79 log2 (difference from the parental peptide) for the first, -8.22 log2 (difference from the parental peptide) for the second.

Going from chain 1 A9M to chain 1 E2V, the enrichment rises from -3.9 log2 (difference from the parental peptide) to -1.26 log2 (difference from the parental peptide).

Compared with chain 1 E2N, chain 1 E2M is higher in enrichment: -2.2 log2 (difference from the parental peptide) for the first, -2.17 log2 (difference from the parental peptide) for the second.

First: chain 1 E2W
Second: chain 1 E2Q
The enrichment of the first is higher: -1.18 log2 (difference from the parental peptide) for the first, -1.88 log2 (difference from the parental peptide) for the second.

Compared with chain 1 E2P, chain 1 E2R is lower in enrichment: -3.03 log2 (difference from the parental peptide) for the first, -4.37 log2 (difference from the parental peptide) for the second.

First: chain 1 E2H
Second: chain 1 D3I
The enrichment of the first is higher: -2.04 log2 (difference from the parental peptide) for the first, -3.64 log2 (difference from the parental peptide) for the second.

Going from chain 1 D3R to chain 1 D3E, the enrichment rises from -4.7 log2 (difference from the parental peptide) to 1.01 log2 (difference from the parental peptide).

First: chain 1 D3Q
Second: chain 1 D3N
The enrichment of the first is lower: -3.56 log2 (difference from the parental peptide) for the first, -2.11 log2 (difference from the parental peptide) for the second.

Compared with chain 1 D3S, chain 1 D3W is higher in enrichment: -2.37 log2 (difference from the parental peptide) for the first, -2.32 log2 (difference from the parental peptide) for the second.

First: chain 1 D3L
Second: chain 1 D3A
The enrichment of the first is lower: -3.31 log2 (difference from the parental peptide) for the first, -2.51 log2 (difference from the parental peptide) for the second.

Going from chain 1 D3G to chain 1 D3V, the enrichment falls from -2.44 log2 (difference from the parental peptide) to -3.36 log2 (difference from the parental peptide).

Compared with chain 1 D3M, chain 1 D3F is higher in enrichment: -2.83 log2 (difference from the parental peptide) for the first, -2.01 log2 (difference from the parental peptide) for the second.

Compared with chain 1 Y5I, chain 1 Y5L is higher in enrichment: -5.08 log2 (difference from the parental peptide) for the first, -1.57 log2 (difference from the parental peptide) for the second.

Going from chain 1 Y5D to chain 1 Y5W, the enrichment rises from -5.03 log2 (difference from the parental peptide) to 1.96 log2 (difference from the parental peptide).

Going from chain 1 Y5M to chain 1 Y5H, the enrichment falls from -3.3 log2 (difference from the parental peptide) to -5.89 log2 (difference from the parental peptide).
